Results as given in the supplement of paper PMC12042874.
± gives the uncertainty stated by the source.

test: amyloid nucleation score (Sup35N fusion, yeast selection) (log enrichment); library NNK1; higher = more nucleation; inactive = no reads after selection
Outline: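 Output and input plasmid inserts were sequenced by Illumina after psi-negative yeast carrying Sup35N fused to peptides of 20 random codons had been induced 24 hours with 100 μM copper sulfate and grown 7 days at 30°C on medium lacking adenine and uracil. The nucleation score is the DiMSum log enrichment of output over input reads, centred on the mode score of non-aggregating sequences. Sequences with under 100 input reads were excluded.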

First: DRWDFMQLNCIHLEA
Second: NGQRDIEYLSLFSPVGTMNS
The amyloid nucleation score of the first is higher: 0.885 ± 0.88 for the first, -0.518 ± 0.43 for the second.

RSFTCVMDRSDVEVGQCLGS and KSGTAFLFFKMI are within error of each other in amyloid nucleation score: -0.6 ± 0.77 for the first, 0.399 ± 0.31 for the second.

Compared with FLAYLPSEKC, RDNCSLNVYFK is higher in amyloid nucleation score: -0.267 ± 0.44 for the first, 2.9 ± 0.14 for the second.

Compared with MRFYAMGRDVYICCDGNKIL, SLRITLVWGRMQCGPESVCR is lower in amyloid nucleation score: 5.07 ± 0.066 for the first, 0.745 ± 0.24 for the second.

LRSIRVPP and ISAKH are within error of each other in amyloid nucleation score: -0.005 ± 0.32 for the first, -0.89 ± 0.65 for the second.

Going from MRLSQGGPLRLPRVTFSRYC to TMYWITQKVEKSSHMVCRVT, the amyloid nucleation score rises from 0.027 ± 1.7 to 2.61 ± 0.078.

IGGRGVLKSVSTLTCVLWTW and YVLSFYHQVGPALGFIRQWI are within error of each other in amyloid nucleation score: 0.473 ± 0.92 for the first, -1.04 ± 0.69 for the second.

TRPLPWTQP and PSHYWNRVLLIWRLSGCVVY are within error of each other in amyloid nucleation score: 0.242 ± 0.47 for the first, -0.145 ± 0.29 for the second.

Going from YMKWTNDVNDTLDILFCVYL to DGSNRHLSRSMVGRGRT, the amyloid nucleation score falls from 3.84 ± 0.069 to 0.335 ± 0.8.

Going from LTGSRIMCFSMWR to SWTVGSMLSLDIWHRVYLTT, the amyloid nucleation score rises from -1.02 ± 0.43 to -0.058 ± 0.44.

Compared with GLEDRNRWKVWFITLCRGIA, CVSFMVTFTIMRQLYNCKCR is higher in amyloid nucleation score: 0.71 ± 1.1 for the first, 3.91 ± 0.077 for the second.

Going from FALKIVGVVPVAVGMTIDDW to GIWIRVSLAMRVTTSRRLGN, the amyloid nucleation score rises from 0.052 ± 0.85 to 2.57 ± 0.17.

ARYYIVREGSEKCDLLTGRG and SSLVKTS are within error of each other in amyloid nucleation score: 0.004 ± 0.61 for the first, -0.44 ± 0.47 for the second.

FKLVI and MLHYAWVGLSVNDMVLPEMC are within error of each other in amyloid nucleation score: 0.697 ± 0.9 for the first, -0.78 ± 0.67 for the second.

GGYWWQDRRHGPILYLVFWA and NIGIRI are within error of each other in amyloid nucleation score: 0.552 ± 0.34 for the first, 0.095 ± 0.39 for the second.

LINHIS and KWTLTRLYVACRYNDHSRLS are within error of each other in amyloid nucleation score: 0.444 ± 0.9 for the first, 1.07 ± 0.39 for the second.

CGSRSCSLFDRKWIRYFLGC and WNNVGNTCMEPRSSLGCTLR are within error of each other in amyloid nucleation score: 0.759 ± 0.34 for the first, 0.147 ± 0.51 for the second.

VWRSFSGNITCMLFYNFPVR and CEVAQCHYLVVWFCAWAWRY are within error of each other in amyloid nucleation score: -0.621 ± 0.95 for the first, 0.939 ± 0.68 for the second.

SYSYDARNCNNTRDGNYNFL and WREGDI are within error of each other in amyloid nucleation score: -1.99 ± 1.1 for the first, -0.294 ± 1.2 for the second.

PFCSGALLARLG and FRKLAIFHLAE are within error of each other in amyloid nucleation score: 0.047 ± 0.77 for the first, 0.207 ± 0.69 for the second.

YHDVRLMVRVHVFWLF and CIIVFPISTPWAQGSYIRIQ are within error of each other in amyloid nucleation score: 1.03 ± 0.37 for the first, 0.041 ± 1.2 for the second.

TSDGHFSSQVDSVDESKVGE and CFNTRHRVQELRL are within error of each other in amyloid nucleation score: -0.534 ± 0.46 for the first, -0.224 ± 1.7 for the second.

Going from ICFNFYITYSASDALSRTCY to MGLSLPSFW, the amyloid nucleation score falls from 8.287 ± 0.047 to -0.516 ± 1.7.

IAAYLVVDILPGSI and KCNVTQFVRSLYIRMSMLLH are within error of each other in amyloid nucleation score: -0.036 ± 0.6 for the first, 0.534 ± 0.39 for the second.

VTLTYNYVRRTHMRRDVVAK and RRVSLH are within error of each other in amyloid nucleation score: 0.6 ± 0.34 for the first, 0.416 ± 0.6 for the second.

Going from SGFIGS to YLQVGASADWKLTYSGSGNV, the amyloid nucleation score rises from -1.33 ± 1.3 to 2.72 ± 0.23.

FGSSPRSDVVKHQNINEEVI and YREDKHCIHCWGVMGV are within error of each other in amyloid nucleation score: 0.581 ± 0.61 for the first, -2.16 ± 2.4 for the second.

First: WQCDLNDLLVCTFSMLGYGR
Second: TTRAHEVDTYLYFHFGVGRT
The amyloid nucleation score of the first is lower: -1.05 ± 1.7 for the first, 2.84 ± 0.17 for the second.

First: RFAAFIEQGFTTKK
Second: FNLSLLRSSCAVH
The amyloid nucleation score of the first is higher: 1.87 ± 0.14 for the first, 1.04 ± 0.62 for the second.

MNTLYCWGKCGLVTSLVGLI and MCLAMSIFDKTENK are within error of each other in amyloid nucleation score: 0.059 ± 0.73 for the first, -0.731 ± 0.73 for the second.

SMYFQRP and SWNKGLREED are within error of each other in amyloid nucleation score: 0.53 ± 0.26 for the first, 0.562 ± 0.72 for the second.

Compared with SWCVTCVLA, TKPMIMSTFSEFCIPCTMRL is lower in amyloid nucleation score: 7.204 ± 0.053 for the first, 0.182 ± 0.55 for the second.

YAFIG and ICSNGLLIMNVE are within error of each other in amyloid nucleation score: -1.07 ± 1.5 for the first, 1.13 ± 0.97 for the second.

NDYFY and FCNWANLYGTWLMLCVGSGR are within error of each other in amyloid nucleation score: -0.598 ± 1.4 for the first, 0.712 ± 0.42 for the second.

RMLIDGLSLVVDWRYVVEGG and VISINSVLACVYTIVMR are within error of each other in amyloid nucleation score: -0.192 ± 0.31 for the first, -0.1 ± 0.73 for the second.

Compared with GSELGIKRTLSLFICLWIIG, DDFTLCKPGLVYMMSG is higher in amyloid nucleation score: -0.731 ± 0.36 for the first, 0.398 ± 0.6 for the second.

YRGVQCFKATKNARVLLWVV and YWYNNAWASLWFQAWVDWYI are within error of each other in amyloid nucleation score: -0.051 ± 0.52 for the first, 0.446 ± 0.33 for the second.

MGNHCLTR and TFSLCKWVHSANKGLVQMTF are within error of each other in amyloid nucleation score: 1.12 ± 0.58 for the first, 0.265 ± 0.41 for the second.

ISCVDWAIKCGVVGSLVSET showed an amyloid nucleation score of 0.681 ± 0.99.

In the case of QVRSSDSGLVNHFVNE, the amyloid nucleation score is reported as “inactive”.
With TTLNEELYSLVVSRDWGDSN the amyloid nucleation score was “inactive”.
In the case of DHLVEQYDRGDAAFFRLVFV, the amyloid nucleation score is reported as “inactive”.
For SMLDNDTSNMLEMPIGMYVA, the amyloid nucleation score was “inactive”.
For NLENLCLMILRVPVSDVMQP, the amyloid nucleation score was “inactive”.
In the case of SGTDLRISNHAT, the amyloid nucleation score is reported as “inactive”.
With SIMPWNLSVRSMWRFWMNLR the amyloid nucleation score was “inactive”.
With AFLGYNKIVGLNLAVLNTVG the amyloid nucleation score was “inactive”.
With MCYVRMTFGTRDCHERVSLS the amyloid nucleation score was “inactive”.
In the case of SDQDTGLHTLPCHTRS, the amyloid nucleation score is reported as “inactive”.
